Experimental data from the nanobody polyreactivity screen of Harvey et al. (2022).

Assay: yeast display, Sf9 membrane polyspecificity reagent, FACS + sequencing; frameworks hold sequencing errors
Method in brief: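 Using colony PCR, genes from sorted yeast display clones were amplified, then sequenced on MiSeq at 2 × 250 and filtered by CDR length. The clones had been stained with 10% biotinylated, detergent-solubilized Sf9 membrane reagent for 1 hour at 4 °C and sorted by FACS into low and high (top ~1%) gates on anti-HA and streptavidin fluorescence. Polyreactivity labels come from the gate of origin.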
For “QVQLVESGGGLVQAGGSLRLSCAASGRIFYYYDMGWNRQAPGQERELVAAISFSDGITYYADSVKGRFTISRDNAKNTVYLQMNSLKPEDTAVYYCAAVYRYRNRREYDYWGQGTEVTVSS”, the “polyreactivity (PSR sort gate)” value was “high polyreactivity”.
In the case of “QVQLVESGGGLVQAGGSLRLSCAASGSTFTPYAMGWYRQVPGKERELVASITIGGSTYADSVKGRFTISRDNSKNTVYLQMNSLKPEDTAVYYCNADWNWYPFLYSRMDYWGQGTQVTVSS”, the “polyreactivity (PSR sort gate)” value is reported as “low polyreactivity”.
With “QLQLVDSGGGLVQAGGSLRLSCAASGFTLDYYAMGWYRQAPGKESELVAAISWSGGRTYYADSVKGRFTISRDNAKNTVYLQMNSLKPEDTAVYYCNASPYGRKYGILADGDYWGQGTQVTVSS” the “polyreactivity (PSR sort gate)” value was “high polyreactivity”.
For “QVHLVESGGGLVQAGGSLRLSCAASGSTFIYNTMGWYRQAPGKERELVATITDSSDSTNYADSVKGRFTITRDNAKNTVYLQMNSLKPDDTAVYYCAADGEVDIATYPSQITDYDYWGQGTQVTVSS”, the “polyreactivity (PSR sort gate)” value was “low polyreactivity”.
In the case of “QVQLVESGGGLVQAGGSLRLSCAASGSTFVLYAMGWYIQAPGKERELVAAIDSSGGSTYYADSVKGRFTISRDNAKNTVYVQMNSLKPEDTAVYYCAARFKGLLGYWGQGTQVTVSS”, the “polyreactivity (PSR sort gate)” value is reported as “high polyreactivity”.
With “QVQLVESGGGLVQAGGSLRLSCAASGRIFRHNAMGWYRQAPGKERELVDAITSRGGTYNAHSVKGRFTISRDNAKITVFLQMTSLNPEETAVYFCNADEALYSSGNKYDYWGQGTQVSVSS” the “polyreactivity (PSR sort gate)” value was “low polyreactivity”.
For “QVQLVESGGGLVQAGGSLRLSCAASGLIFSSNAMGWYRQAPGKERELVAAISRRGANTYYADSVKGRFTISRDNAKNTVYLQMNSLKPQDTAVYYCAKRYVGRGTSYQDYYWGQGTQVTVSS”, the “polyreactivity (PSR sort gate)” value was “high polyreactivity”.
With “QVQLVESGGGLVQAGGSLRLSCAASGRTFPGYAMGWYRQAAGTERELVAGISYRGGSTYYADSVKGRFTISRDNAKNTVYLQMNSLKPEDTAVYYCARDYSRHKGDYWGQGTQVTVSS” the “polyreactivity (PSR sort gate)” value was “low polyreactivity”.
With “QVQLVESGGGLVQAGGSLRLSCAASGRIFYSIAMGWYRQAPGKERELVAAISRSGVRTYYADSVKGRFTISRDNAKNTVYLQMNSLKPEDTAVYYCAAVIYGTTPQDEYDYWGQGTQVTVSS” the “polyreactivity (PSR sort gate)” value was “low polyreactivity”.
With “QVQLVESGGGLVQAGGSLRLSCAASGGIFDTNAMGWYRQAPGKEREFVAAITGSGGSTYYADSVKGRFTISRDYAKNSVYLQMNSLKPEDTAVYYCAAPLSYYWVFIVRYGYDYWGQGTQVTVSS” the “polyreactivity (PSR sort gate)” value was “low polyreactivity”.
With “QVQLVESGGGLVQAGGSLRLSCAASGSTLGQYVMGWYRQAPGKERELVAAISRRGGRTNYADSVKGRFTISRDNAKNTVYLQMNSLNPEDTAVYYCAAKFRIYRPSKYYYWGQGTQVTVSW” the “polyreactivity (PSR sort gate)” value was “high polyreactivity”.
In the case of “QVQLVESGGGLVQAGGSLRLSCAASGSIFFAYAMGWYRQAPGKERELVAAITSGVSTNYADSVKGRFTISRDNAKNTVYLQMNSLKPEDTAVYYCNADFDYGFDAGLAVQVVIHDYWGQGTQVTVSS”, the “polyreactivity (PSR sort gate)” value is reported as “low polyreactivity”.
For “QVQLVESGGGLVQAGGSLRLSCAASGSTFYHNVKGWYRQAPWKERELVASIDTGDSTNYADTVKGRFSISRDNAKKTVYLQMNSLKPEDTAVYYCNADSYPALNKRGYEYWGQGTQVTVSS”, the “polyreactivity (PSR sort gate)” value was “low polyreactivity”.
With “QVQLEESGGALVQAGGSLRISCAASGSTFYYNAMGWYRQAPGKERELVAVITLNGGRTSYADSVKGRFTISRDNAKNTVYLQMNSLKPEDSAVYYCAADRYRGYGYWGQGTQVTVSS” the “polyreactivity (PSR sort gate)” value was “low polyreactivity”.
For “QVQLVESGGGLVQAGGSLRLSCAASGGIFYAYDMGWYRQAPGKERELVAAITWTGGTTYYADSVKGRFTISRDNAKNTVYLQMNSLKPEDTAVYYCAADDGTNSTARDKDDYYYWGQGTQVTVSS”, the “polyreactivity (PSR sort gate)” value was “low polyreactivity”.
In the case of “QVQLVESGGGLVQAGGSLRLSCAASGFTLKYYAMGWYRQAPGKERELVAAITQRGGSTYADSVKGRFTISRDNAKNTVYLQMNSLKPEDTAFYFCAASSAKYRLYGGYDYWGQGTQVTVSS”, the “polyreactivity (PSR sort gate)” value is reported as “high polyreactivity”.
In the case of “QVQLVESGGGLVQAGGSLRLSCAASGITFQWNALGWYRQAPGTERELVAAITRSGGRTYYADSVKGRFTISRDNAKNTVYLQMYSLKPEDTAVYYCAARYWDNPYWFDYWGQGTQVTVSS”, the “polyreactivity (PSR sort gate)” value is reported as “high polyreactivity”.
In the case of “QVQLVESGGGLVQAGGSLRLSCAASGFTFGAYAMGWYRQAPGKERELVAAITWSGSSTYYADSVKGRFTISRDNAKNTVYLQMNSLKPEDTAVYYCNVQDKGYVSYYGGDSWGQGTQVTVSS”, the “polyreactivity (PSR sort gate)” value is reported as “high polyreactivity”.
For “QVQLVESGGGLVQAGGSLRLSCAASGSTLYSYAMGWYRQAPGKERELVAAISIGGRTYYADSVKGRFTISRDNAKNTVYLQMNSLKPEDTAVYYCNKYYGPRTYLSAQGRSYGYWGQGTQVTVSS”, the “polyreactivity (PSR sort gate)” value was “high polyreactivity”.
For “QVQLVESGGGLVQAGGSLRLSSAASGRTFAWYAMGWYRQAPGKERELVAAISSGGSTYYADSVKGRFTISRDNAKNTVYLQMDSLKPEDTAVYYCAAEWHYIYAYDYWGQGTQVTVSS”, the “polyreactivity (PSR sort gate)” value was “low polyreactivity”.
With “QVQLVESGGGLVQAGGSLRLSCAASGSIFGVYAMGWYIPAPGTERELVAAISRGGSTNDADSVKGRFTISRDNEKNTVYLQMNSLKPEDTAVYYCNAVPVLGGYGYQWGYDYWGQGTKVTVSS” the “polyreactivity (PSR sort gate)” value was “low polyreactivity”.
With “QVQLVESGGGLVQAGGGLRLSCAASGSTFVKNAMGWYRQAPGKERELVAAISYRGGRTYYADSVKGRFTISRDNAKNTVYLQMNSLKPEDTAVYYCAADASHLTGSEYWGQGTQVTVSS” the “polyreactivity (PSR sort gate)” value was “high polyreactivity”.
For “QVQLVESGGGLVQAGGSLRLSCAASGSTFFYYAMGWYRQAPGKERELVAGITSGASTTYADSVKGRFTISRDNAKNNVYLQMNSLKPEDTAVYYCAADHVESSWSDYDYWGQGTQVTVSS”, the “polyreactivity (PSR sort gate)” value was “low polyreactivity”.
For “QVQLVESGGGIVHAGGSLRLSCAASGSTIDVYDMGWYRQAPGKERELVAAITTSGGGTYYADSVKGRFTISRDNAKNTVYLQMNRLKPEDTAVYYCAADTWRDGDDYWGQGTQVTVSS”, the “polyreactivity (PSR sort gate)” value was “low polyreactivity”.
With “QVQLVESGGGLVQAGGSLRFICAASGNTLNYYTMGWYRQAPGKERELVAAISSSGGSTYYADSVKGRFTISRDNAKNTVYLQMNSLQPEDTAVYYCNASVINEMNYWGQGTQVTVSS” the “polyreactivity (PSR sort gate)” value was “low polyreactivity”.
For “QVQRVESGGGLVQAGGSLRLSCAASGRTFDGYAMGWYRQAPGKDRELVAAISKRGGSTYYADSVKGRFTISRDNAKNTVYLQMHSLKPEDTAVYYCNTRYFGDQTWVGGDSWGQGTQVTVSS”, the “polyreactivity (PSR sort gate)” value was “high polyreactivity”.
In the case of “QAQLQESRGSVVQAGLGLRLSCAASGYISVGSVMGWYRQAPSKERELVASIDQGANTNYADSVKGRFTISRDNAKNNVYLQMISLKPEDTEVYYCATETTYILNYWGQGSQVTVSS”, the “polyreactivity (PSR sort gate)” value is reported as “low polyreactivity”.
In the case of “QVQLVQSGGGLVHAGGSLRLSCAASGGTFQRYVMGWYRQAPGKERELVAAISRSGSTYADSVKGRFTISRDNAKNTVYLEMNSLKPEDTAVYYCNTVYPGRDYCKFGYWGQGTQVTVSS”, the “polyreactivity (PSR sort gate)” value is reported as “high polyreactivity”.
With “QVQRVDSGGGLVQAGGSLRLSCAASGRILRDYDRGWYRQAPGKDRELVAAINWSDGSTYYADSVKGRFTISRDNAKNTVYLQMNSLKPEDTAVYYCAASRWRPLERGTTWLHDYWGQGTQVTVSS” the “polyreactivity (PSR sort gate)” value was “low polyreactivity”.
For “QVQLVESGGGLVQAGGSLRLSCAASGFTFWYYAMGWYRQAPGKERELVATISRGGGSTYYADSVKGRFTISRDNAKNTVYLQMNSLKPEDTAVYYCAAETVRWWWLYDYWGQGTQVTVSS”, the “polyreactivity (PSR sort gate)” value was “high polyreactivity”.
